The target in data set [1] is A. thaliana Rubisco small subunit 1A (1AAt), mature (Arabidopsis thaliana, UniProt P10795 56-180). Kind of data set: yeast two-hybrid, growth on SD-L-W-H with 3-AT. As to the method: (§1) Competent yeast cells (Y2H Gold, Clontech) were prepared from a 50 ml culture grown in YPDA medium supplemented with kanamycin (50 μg ml⁻¹). Cells were washed with ddH2O and a lithium acetate/TE solution (100 mM LiAc, 10 mM Tris-HCl [pH 7.5], 1 mM EDTA) before re-suspending in lithium acetate/TE solution. Cells were then co-transformed with binding and activation domain vectors by mixing 50 μl of competent cells with 1 μg of each plasmid vector and a PEG solution (100 mM LiAc, 10 mM Tris-HCl [pH 7.5], 1 mM EDTA, 40% [v/v] PEG 4000). Cells were incubated at 30° C. for 30 min, then subjected to a heat shock of 42° C. for 20 min. The cells were centrifuged, re-suspended in 500 μl YPDA and incubated at 30° C. for ca 90 min, then centrifuged and washed in TE (10 mM Tris-HCl [pH 7.5], 1 mM EDTA). […] The following day 1 ml of culture was harvested, cell density (OD₆₀₀) measured, centrifuged and then diluted in TE to give a final OD₆₀₀ of 0.5 or 0.1.
(§2) Yeast cultures were then plated onto SD-L-W (yeast synthetic minimal media lacking leucine (L) and tryptophan (W)) and SD-L-W-H (yeast synthetic minimal media lacking L, W, and histidine(H)) (Anachem). […] These plates were then incubated for 3 days before assessing for presence or absence of growth, to perform a semi-quantitative yeast two-hybrid assay as in van Nues and Beggs (van Nues and Beggs, Genetics (2000) 157: 1451-1467). […]

In data set [2] the target is T1, 1AAtMOD (α-helices and β-sheets): A. thaliana SSU 1A with α-helices and β-sheets replaced with those of C. … (Arabidopsis thaliana with parts of …).
T1 construct: also called pGADT7_1AAtMOD(α-helices + β-sheets)
T1 chain: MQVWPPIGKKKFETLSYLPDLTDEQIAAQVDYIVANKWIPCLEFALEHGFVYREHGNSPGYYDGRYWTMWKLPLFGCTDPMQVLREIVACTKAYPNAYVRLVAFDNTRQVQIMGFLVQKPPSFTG
Kind of data set: yeast two-hybrid (FIG. 3C). The method, then:
(§3) The following day 1 ml of culture was harvested, cell density (OD₆₀₀) measured, centrifuged and then diluted in TE to give a final OD₆₀₀ of 0.5 or 0.1.
(§4) Yeast cultures were then plated onto SD-L-W (yeast synthetic minimal media lacking leucine (L) and tryptophan (W)) and SD-L-W-H (yeast synthetic minimal media lacking L, W, and histidine(H)) (Anachem). Yeast expressing both binding and activation domain constructs was grown on SD-L-W to confirm presence of both plasmids. To assess interaction strength, yeast was plated onto SD-L-W-H with differing concentrations of the HIS3 inhibitor 3-aminotriazole (3-AT). These plates were then incubated for 3 days before assessing for presence or absence of growth, to perform a semi-quantitative yeast two-hybrid assay as in van Nues and Beggs (van Nues and Beggs, Genetics (2000) 157: 1451-1467). The same yeast transformation was used for each interaction study. Different colonies on the same yeast transformation plate were considered independent biological replicates (as for E. coli). Two biological replicates (top and bottom row for each interaction) were spotted from different liquid culture concentrations (0.5 and 0.1 OD). Each interaction experiment was performed at least twice.
(§5) Interactions were only observed between EPYC1 and chimeric 1AAt with the two α-helices from the C. reinhardtii SSU (FIG. 3C). The S1Cr 1AAt with the S1Cr α-helices alone produced a minimal interaction (i.e., on 0 mM 3-AT), which was strengthened by the incorporation of the β-sheets and the βA-βB loop from S1Cr.

Data set [3] has as its target T2, 1AAtMOD (loop): A. thaliana SSU 1A with βA-βB loop replaced with C. reinhardtii βA-βB loop (Arabidopsis thaliana with parts of …).
T2 construct: also called pGADT7_1AAtMOD(loop)
T2 chain: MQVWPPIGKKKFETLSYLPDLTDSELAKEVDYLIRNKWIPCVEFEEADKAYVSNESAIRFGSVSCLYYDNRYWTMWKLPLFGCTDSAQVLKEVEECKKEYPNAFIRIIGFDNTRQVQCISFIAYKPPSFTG
Kind of data set: yeast two-hybrid (FIG. 3C). The method, then: as §3, §4, §5

For data set [4], the target named is T3, 1AAtMOD (β-sheets and loop): A. thaliana SSU 1A with β-sheets and βA-βB loop replaced with those of C. … (Arabidopsis thaliana with parts of …).
T3 construct: also called 1AAtMod (β-sheet and loop); pGADT7_1AAtMOD(β-sheets + loop)
T3 chain: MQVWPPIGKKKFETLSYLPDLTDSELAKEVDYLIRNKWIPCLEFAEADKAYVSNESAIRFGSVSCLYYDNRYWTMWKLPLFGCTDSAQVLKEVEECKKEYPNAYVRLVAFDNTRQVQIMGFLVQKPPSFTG
Kind of data set: yeast two-hybrid (FIG. 3C). As to the method:
as §3, §4, §5

Data set [5] deals with T4, 1AAtMOD (α-helices, β-sheets and loop): A. thaliana SSU 1A with α-helices, β-sheets and βA-βB loop replaced … (Arabidopsis thaliana with parts of …).
T4 construct: also called 1AAtMod (α-helices, β-sheet and loop); pGADT7_1AAtMOD(α-helices + β-sheets + loop)
T4 chain: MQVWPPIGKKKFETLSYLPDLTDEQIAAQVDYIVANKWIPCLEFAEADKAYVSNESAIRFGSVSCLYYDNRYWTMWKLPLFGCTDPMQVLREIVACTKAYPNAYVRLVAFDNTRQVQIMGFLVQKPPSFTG
Put plainly: yeast two-hybrid (FIG. 3C). As to the method:
as §3, §4, §5

For data set [6], the target named is T5, 1AAtMOD (β-sheets): A. thaliana SSU 1A with β-sheets replaced with C. reinhardtii β-sheets (Arabidopsis thaliana with parts of …).
T5 construct: also called pGADT7_1AAtMOD(β-sheets)
T5 chain: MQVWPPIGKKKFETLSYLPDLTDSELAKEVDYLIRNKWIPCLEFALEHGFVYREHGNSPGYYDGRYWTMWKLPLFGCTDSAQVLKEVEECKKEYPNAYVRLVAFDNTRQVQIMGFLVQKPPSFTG
Kind of data set: yeast two-hybrid (FIG. 3C). The method, then:
as §3, §4, §5

Data set [7] concerns the molecule itself. Put plainly: yeast two-hybrid, EPYC1 in both the binding domain and the activation domain vector. The method, then: as §1, §2
Data set [8] addresses T6, A. thaliana CP12-2 (AtCP12) (Arabidopsis thaliana, UniProt Q9LZP9 54-131, limits assumed).
T6 construct: also called AT3G62410; pGADT7_CP12
T6 sequence (looked up): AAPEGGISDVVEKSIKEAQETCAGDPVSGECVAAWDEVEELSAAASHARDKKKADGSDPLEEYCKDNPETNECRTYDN
Kind of data set: yeast two-hybrid. The method, then:
as §1, §2

B1: Essential Pyrenoid Component 1 (EPYC1), full-length, C. reinhardtii (other)
chain: MATISSMRVGAASRVVVSGRVKTVKVAARGSWRESSTATVQASRASSATNRVSPTRSVLPANWRQELESLRNGNGSSSAASSAPAPARSSSASWRDAAPASSAPARSSSASKKAVTPSRSALPSNWKQELESLRSSSPAPASSAPAPARSSSASWRDAAPASSAPARSSSSKKAVTPSRSALPSNWKQELESLRSSSPAPASSAPAPARSSSASWRDAAPASSAPARSSSASKKAVTPSRSALPSNWKQELESLRSNSPAPASSAPAPARSSSASWRDAPASSSSSSADKAGTNPWTGKSKPEIKRTALPADWRKGL
notes: also called Cre10.g436550.t1.2; pGBKT7_EPYC1
On to B1, for which the binding result in data set [1] was “no binding”; in data set [2], “binds”; in data set [3], “no binding”; in data set [4] it was “no binding”; in data set [5], “binds”; in data set [6], “no binding”. For the same molecule, the binding result in data set [7] and in data set [8] was “no binding” throughout.

The values above are taken from US20220282268A1 (UNIVERSITY COURT OF THE UNIVERSITY OF EDINBURGH, published 2022).
